This passage reports activity results from US20240011031, “COMPOSITIONS COMPRISING A NUCLEASE AND USES THEREOF” (Arbor Biotechnologies, Inc., published 2024).

In data set [1] the target is T1, Effector SEQ ID NO: 2 (CLUST.200916 nuclease).
T1 chain: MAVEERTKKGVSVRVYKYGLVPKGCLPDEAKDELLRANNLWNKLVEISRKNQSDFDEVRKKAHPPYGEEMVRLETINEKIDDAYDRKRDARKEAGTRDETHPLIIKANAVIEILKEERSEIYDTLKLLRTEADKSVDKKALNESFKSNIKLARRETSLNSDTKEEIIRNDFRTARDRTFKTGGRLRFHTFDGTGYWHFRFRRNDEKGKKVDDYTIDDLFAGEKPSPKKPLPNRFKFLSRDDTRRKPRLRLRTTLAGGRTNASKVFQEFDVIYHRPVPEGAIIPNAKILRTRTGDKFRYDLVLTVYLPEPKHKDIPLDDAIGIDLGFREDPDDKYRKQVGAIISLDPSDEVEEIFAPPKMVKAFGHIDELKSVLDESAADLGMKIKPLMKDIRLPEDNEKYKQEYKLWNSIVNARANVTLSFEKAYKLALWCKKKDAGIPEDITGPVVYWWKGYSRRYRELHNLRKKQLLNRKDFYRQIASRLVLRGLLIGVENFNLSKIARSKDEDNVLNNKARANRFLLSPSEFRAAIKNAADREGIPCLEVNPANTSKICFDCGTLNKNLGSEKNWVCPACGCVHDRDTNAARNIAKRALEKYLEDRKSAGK
Put plainly: GFP fluorescence depletion in IVTT, 37 C, 12 h; PAM 5'-TCCT-3'. From the text: (§1) In this assay, an active CRISPR system designed to target GFP binds and cleaves the double-stranded DNA region encoding GFP, resulting in depletion of GFP fluorescence. The FDA assay involves in vitro transcription and translation, allowing production of an RNP from a DNA template encoding a CLUST.200916 effector and a DNA template containing a pre-crRNA sequence under a T7 promoter with direct repeat (DR)-spacer-direct repeat (DR); the spacer targeted GFP. In the same one-pot reaction, GFP and RFP were also produced as both the target and the fluorescence reporter (FIG. SA). The target GFP plasmid sequence is set forth in SEQ ID NO: 205, and the fluorescence reporter RFP plasmid sequence is set forth in SEQ ID NO: 206. GFP and RFP fluorescence values were measured every 20 min at 37° C. for 12 hr, using a TECAN Infinite F Plex plate reader. Since RFP was not targeted, its fluorescence was not affected and was therefore used as an internal signal control.
(§2) GFP signal was normalized to RFP signal, then the average fluorescence of three technical replicates was taken at each time point. GFP fluorescence depletion was then calculated by dividing the GFP signal of an effector incubated with a non-GFP targeting RNA guide (which instead targets a kanamycin resistance gene) by the GFP signal of an effector incubated with a GFP targeting RNA guide. […]

In data set [2] the target is T1, Effector SEQ ID NO: 2 (CLUST.200916 …). Put plainly: GFP fluorescence depletion in IVTT, 37 C, 12 h; PAM 5'-ACCG-3'.
Excerpt: as §1, §2

Data set [3] shares this target. Briefly: GFP fluorescence depletion in IVTT, 37 C, 12 h; PAM 5'-CCCG-3'.
Excerpt: as §1, §2

For data set [4] the target is unchanged. Briefly: GFP fluorescence depletion in IVTT, 37 C, 12 h; PAM 5'-CCCA-3'.
Excerpt: as §1, §2

For data set [5] the target is unchanged. Briefly: GFP fluorescence depletion in IVTT, 37 C, 12 h; PAM 5'-TCCA-3'.
Excerpt: as §1, §2

B1: pre-crRNA GFP Target 4 ; GFP Target 4 (ssRNA ; dsDNA)
RNA: GGUAUAACGACCCUGCGAAGUGGGGUGUAACUUCGACUGAUGUGGCUCGGGUACUUGGCGAAACACUGUAUAACGACCCUGCGAAGUGGGGUGUAACUUCGACCUAACCCCUCUCUAAACGGAGGGGUUU
DNA 1: TGATGTGGCTCGGGTACTTGGCGAAACACT
DNA 2: AGTGTTTCGCCAAGTACCCGAGCCACATCA
Molecule B1 yielded an activity in data set [1] of over 1 depletion ratio.

B2: pre-crRNA GFP Target 2 ; GFP Target 2 (ssRNA ; dsDNA)
RNA: GGUAUAACGACCCUGCGAAGUGGGGUGUAACUUCGACAAAAACUGGUUACCAAAUGCAGCCAAAUGAGUAUAACGACCCUGCGAAGUGGGGUGUAACUUCGACCUAACCCCUCUCUAAACGGAGGGGUUU
DNA 1: AAAAACTGGTTACCAAATGCAGCCAAATGA
DNA 2: TCATTTGGCTGCATTTGGTAACCAGTTTTT
On to B2, for which the activity in data set [2] was over 1 depletion ratio.

B3: pre-crRNA GFP Target 3 ; GFP Target 3 (ssRNA ; dsDNA)
RNA: GGUAUAACGACCCUGCGAAGUGGGGUGUAACUUCGACUAGUGCAGAUGUAUUUCGCUUUAAUGGUACGUAUAACGACCCUGCGAAGUGGGGUGUAACUUCGACCUAACCCCUCUCUAAACGGAGGGGUUU
DNA 1: TAGTGCAGATGTATTTCGCTTTAATGGTAC
DNA 2: GTACCATTAAAGCGAAATACATCTGCACTA
In turn, B3 returned an activity in data set [3] of over 1 depletion ratio.

B4: pre-crRNA GFP Target 1 ; GFP Target 1 (ssRNA ; dsDNA)
RNA: GGUAUAACGACCCUGCGAAGUGGGGUGUAACUUCGACAGAGCGUACCAUCAGCUUCGAAGGCGACGGGUAUAACGACCCUGCGAAGUGGGGUGUAACUUCGACCUAACCCCUCUCUAAACGGAGGGGUUU
DNA 1: AGAGCGTACCATCAGCTTCGAAGGCGACGG
DNA 2: CCGTCGCCTTCGAAGCTGATGGTACGCTCT
For B4, in data set [4], the activity is over 1 depletion ratio.

B5: pre-crRNA GFP Target 5 ; GFP Target 5 (ssRNA ; dsDNA)
RNA: GGUAUAACGACCCUGCGAAGUGGGGUGUAACUUCGACUGACGGCAUUGACGGAAGGUGCAAAACUGUGUAUAACGACCCUGCGAAGUGGGGUGUAACUUCGACCUAACCCCUCUCUAAACGGAGGGGUUU
DNA 1: TGACGGCATTGACGGAAGGTGCAAAACTGT
DNA 2: ACAGTTTTGCACCTTCCGTCAATGCCGTCA
Take B5: in data set [5], the activity is over 1 depletion ratio.
